Measured values taken from the Human Domainome abundance scans (Beltran et al. 2025).
± gives the uncertainty stated by the source.

B1: DnaJ homolog subfamily C member 2, residues 451 to 503; numbered along this chain, Q99543 (parent)
chain: SKNWSEDDLQLLIKAVNLFPAGTNSRWEVIANYMNIHSSSGVKRTAKDVIGKA

Variants of: B1
Experiment: abundance fitness (aPCA) (normalised: wild type 0, dead -1); higher = more abundant; growth selection in yeast, the domain comes from the species named
Conditions: Homo sapiens
In the case of S5Y, the abundance fitness is reported as -0.715 ± 0.5.
Work on S38P yielded an abundance fitness of -0.936 ± 0.091.
S38Y gave an abundance fitness of -1.03 ± 0.18.
In the case of E6F, the abundance fitness is reported as 0.038 ± 0.38.
Variant E6K has an abundance fitness of -0.679 ± 0.44.
L12A gave an abundance fitness of -0.617 ± 0.067.
In the case of L12W, the abundance fitness is reported as -0.177 ± 0.062.
L12Q gave an abundance fitness of -0.894 ± 0.11.
Work on L12Y yielded an abundance fitness of -0.168 ± 0.091.
K47E gave an abundance fitness of 0 ± 0.11.
Variant K47T has an abundance fitness of 0.08 ± 0.091.
Work on K47R yielded an abundance fitness of -0.056 ± 0.065.
For K47N, the abundance fitness was -0.065 ± 0.089.
For W27E, the abundance fitness was -0.168 ± 0.077.
Variant W27V has an abundance fitness of -0.444 ± 0.061.
For W27Q, the abundance fitness was -0.726 ± 0.096.
Variant I36K has an abundance fitness of 0.208 ± 0.086.
In the case of I36T, the abundance fitness is reported as -0.007 ± 0.072.
I36Y showed an abundance fitness of -0.141 ± 0.086.
For I36L, the abundance fitness was 0.049 ± 0.059.
I36N showed an abundance fitness of 0.049 ± 0.09.
I36S gave an abundance fitness of 0.014 ± 0.058.
For L18G, the abundance fitness was -0.53 ± 0.061.
In the case of L18E, the abundance fitness is reported as -0.305 ± 0.095.
Work on I13Q yielded an abundance fitness of 0.131 ± 0.08.
I13E gave an abundance fitness of -0.006 ± 0.068.
With I13L the abundance fitness was 0.085 ± 0.058.
With I13R the abundance fitness was 0.086 ± 0.054.
Work on I13T yielded an abundance fitness of -0.141 ± 0.072.
In the case of I13C, the abundance fitness is reported as -0.147 ± 0.082.
K14A showed an abundance fitness of -0.026 ± 0.065.
Work on K14C yielded an abundance fitness of -0.274 ± 0.07.
K14H showed an abundance fitness of -0.05 ± 0.098.
With K14Q the abundance fitness was -0.308 ± 0.071.
K14Y gave an abundance fitness of -0.207 ± 0.083.
For Q10S, the abundance fitness was -0.163 ± 0.06.
Q10T showed an abundance fitness of -0.319 ± 0.073.
With Q10H the abundance fitness was -0.254 ± 0.075.
Variant Q10W has an abundance fitness of -0.706 ± 0.094.
In the case of Q10Y, the abundance fitness is reported as -0.207 ± 0.094.
Work on A21K yielded an abundance fitness of -0.018 ± 0.086.
For A21I, the abundance fitness was -0.185 ± 0.12.
Work on A21H yielded an abundance fitness of 0.083 ± 0.09.
For A21C, the abundance fitness was -0.117 ± 0.082.
P20A gave an abundance fitness of -0.571 ± 0.074.
In the case of P20W, the abundance fitness is reported as -0.975 ± 0.082.
In the case of P20G, the abundance fitness is reported as -0.103 ± 0.066.
In the case of P20D, the abundance fitness is reported as -0.13 ± 0.098.
K52I gave an abundance fitness of -0.094 ± 0.11.
Variant K52A has an abundance fitness of -0.01 ± 0.09.
V16Y gave an abundance fitness of -0.028 ± 0.11.
Work on V16L yielded an abundance fitness of -0.067 ± 0.061.
Variant V16W has an abundance fitness of -0.268 ± 0.069.
In the case of V16P, the abundance fitness is reported as -1.04 ± 0.13.
With M34F the abundance fitness was -0.317 ± 0.11.
Work on M34D yielded an abundance fitness of -0.833 ± 0.1.
L11P showed an abundance fitness of -0.891 ± 0.087.
Variant L11S has an abundance fitness of -0.582 ± 0.065.
With L11D the abundance fitness was -0.802 ± 0.1.
L11C gave an abundance fitness of -0.403 ± 0.083.
S39I showed an abundance fitness of -0.197 ± 0.1.
Variant S39M has an abundance fitness of -0.122 ± 0.084.
For S39Y, the abundance fitness was -0.339 ± 0.083.
With S39L the abundance fitness was -0.095 ± 0.058.
S39A showed an abundance fitness of 0.122 ± 0.067.
For D7R, the abundance fitness was 0.015 ± 0.053.
In the case of D7A, the abundance fitness is reported as 0.106 ± 0.058.
In the case of D7M, the abundance fitness is reported as 0.037 ± 0.077.
Work on D7V yielded an abundance fitness of -0.054 ± 0.061.
For F19Q, the abundance fitness was -0.86 ± 0.14.
F19H showed an abundance fitness of -0.093 ± 0.14.
F19I gave an abundance fitness of -0.29 ± 0.094.
With E28D the abundance fitness was -0.089 ± 0.14.
Work on E28A yielded an abundance fitness of -0.278 ± 0.074.
Work on E28Y yielded an abundance fitness of -0.866 ± 0.24.
Variant N32Y has an abundance fitness of -0.507 ± 0.11.
In the case of N32P, the abundance fitness is reported as -0.93 ± 0.11.
With N32R the abundance fitness was -0.095 ± 0.057.
Variant N32H has an abundance fitness of 0.076 ± 0.09.
In the case of V49I, the abundance fitness is reported as -0.069 ± 0.07.
V49A gave an abundance fitness of -0.219 ± 0.065.
In the case of V49Q, the abundance fitness is reported as -0.744 ± 0.16.
In the case of V49H, the abundance fitness is reported as -0.883 ± 0.14.
In the case of N24P, the abundance fitness is reported as -0.066 ± 0.09.
For N24F, the abundance fitness was -0.101 ± 0.097.
Work on S1Y yielded an abundance fitness of -0.37 ± 0.14.
Work on S1M yielded an abundance fitness of -0.364 ± 0.26.
S1F gave an abundance fitness of -0.112 ± 0.14.
In the case of S1G, the abundance fitness is reported as 0.092 ± 0.092.
In the case of W4D, the abundance fitness is reported as -0.808 ± 0.097.
Work on W4K yielded an abundance fitness of -0.758 ± 0.12.
For W4T, the abundance fitness was -0.621 ± 0.073.
Y33K gave an abundance fitness of -0.568 ± 0.11.
With Y33A the abundance fitness was -0.752 ± 0.082.
Y33N gave an abundance fitness of -0.968 ± 0.14.
I50R gave an abundance fitness of 0.096 ± 0.06.
For I50H, the abundance fitness was -0.146 ± 0.1.
For I50L, the abundance fitness was -0.06 ± 0.061.
For A46K, the abundance fitness was -0.087 ± 0.095.
Work on A46R yielded an abundance fitness of -0.222 ± 0.061.
Variant A46S has an abundance fitness of -0.099 ± 0.068.
Work on A46M yielded an abundance fitness of -0.22 ± 0.099.
For A46Q, the abundance fitness was -0.089 ± 0.097.
With A46C the abundance fitness was -0.094 ± 0.077.
Variant D48H has an abundance fitness of -0.539 ± 0.1.
In the case of D48S, the abundance fitness is reported as -0.212 ± 0.067.
D48M gave an abundance fitness of -0.396 ± 0.095.
For D48Q, the abundance fitness was -0.105 ± 0.1.
Variant A31K has an abundance fitness of -0.357 ± 0.085.
For K43F, the abundance fitness was -0.179 ± 0.083.
Variant K43A has an abundance fitness of -0.133 ± 0.057.
K43W showed an abundance fitness of -0.259 ± 0.069.
Work on K43G yielded an abundance fitness of -0.302 ± 0.058.
With N17A the abundance fitness was -0.085 ± 0.061.
N17V showed an abundance fitness of -0.161 ± 0.063.
With N17T the abundance fitness was -0.016 ± 0.074.
N17Q showed an abundance fitness of -0.157 ± 0.073.
For A53Y, the abundance fitness was -0.629 ± 0.45.
A53R gave an abundance fitness of -0.498 ± 0.32.
In the case of S40A, the abundance fitness is reported as 0.009 ± 0.069.
For G22W, the abundance fitness was -0.293 ± 0.075.
With G22H the abundance fitness was -0.166 ± 0.1.
Variant G22F has an abundance fitness of -0.489 ± 0.083.
Work on G22C yielded an abundance fitness of 0.015 ± 0.087.
V29N gave an abundance fitness of -0.166 ± 0.13.
Work on V29I yielded an abundance fitness of -0.127 ± 0.068.
In the case of V29T, the abundance fitness is reported as 0.008 ± 0.062.
In the case of V29P, the abundance fitness is reported as -0.696 ± 0.098.
N35G showed an abundance fitness of -0.646 ± 0.057.
N35Y gave an abundance fitness of -0.775 ± 0.13.
Variant N35M has an abundance fitness of -0.56 ± 0.079.
With N35W the abundance fitness was -0.897 ± 0.09.
For N35V, the abundance fitness was -0.815 ± 0.074.
Work on N35T yielded an abundance fitness of -0.345 ± 0.071.
With G41M the abundance fitness was -0.035 ± 0.086.
I30F gave an abundance fitness of -0.635 ± 0.1.
I30K showed an abundance fitness of -0.873 ± 0.095.
With A15M the abundance fitness was -0.83 ± 0.13.
Variant A15S has an abundance fitness of -0.214 ± 0.072.
Variant A15R has an abundance fitness of -0.994 ± 0.08.
In the case of D8A, the abundance fitness is reported as -0.977 ± 0.098.
In the case of D8E, the abundance fitness is reported as -0.081 ± 0.082.
For T23C, the abundance fitness was -0.353 ± 0.15.
In the case of T23F, the abundance fitness is reported as 0.038 ± 0.13.
T23P gave an abundance fitness of -0.539 ± 0.16.
With T23E the abundance fitness was -0.325 ± 0.13.
T23G showed an abundance fitness of -0.262 ± 0.097.
For T23A, the abundance fitness was -0.267 ± 0.11.
Variant L9F has an abundance fitness of 0.065 ± 0.078.
Variant L9R has an abundance fitness of -0.054 ± 0.058.
In the case of L9E, the abundance fitness is reported as 0.03 ± 0.068.
Variant L9K has an abundance fitness of -0.043 ± 0.088.
L9C gave an abundance fitness of -0.052 ± 0.091.
For S25C, the abundance fitness was -0.04 ± 0.076.
Variant S25W has an abundance fitness of -0.219 ± 0.096.
With S25E the abundance fitness was -0.159 ± 0.082.
S25I gave an abundance fitness of -0.788 ± 0.15.
In the case of G51Q, the abundance fitness is reported as -0.043 ± 0.11.
Work on N3K yielded an abundance fitness of -0.441 ± 0.092.
N3G gave an abundance fitness of -0.459 ± 0.066.
Work on N3R yielded an abundance fitness of -0.338 ± 0.063.
With N3F the abundance fitness was -0.037 ± 0.14.
For N3W, the abundance fitness was -0.491 ± 0.071.
With K2Y the abundance fitness was -0.138 ± 0.18.
K2I gave an abundance fitness of 0.1 ± 0.11.
K2E gave an abundance fitness of -0.096 ± 0.073.
Variant T45I has an abundance fitness of -0.33 ± 0.15.
